From the supplement of paper PMC11316812
± gives the standard deviation of the averaged measurements.

Legend:
MCF7 = test: percentage of EdU-negative (G0-arrested) nuclei per well, 72 h; higher = more G0 arrest; settings: reference: sequence is the full UniProt precursor, the tested protein was the secreted form or ectodomain
hTERT-HMEC = test: as above; settings: reference: sequence is the full UniProt precursor, the tested protein was the secreted form or ectodomain
[1] = protein concentration 0.0225 µM
[2] = protein concentration 0.0357143 µM
[3] = protein concentration 0.357143 µM
[4] = protein concentration 0.0257143 µM
[5] = protein concentration 0.257143 µM
[6] = protein concentration 0.0185 µM
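Also: secreted proteins added to cultured cells, EdU pulse at the end, nuclei found by Hoechst imaging, EdU status from nuclear versus surrounding ring intensity ratio, PBS as neutral control.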

| Sequence | percentage of EdU-negative (MCF7; [1]) [%] | percentage of EdU-negative (MCF7; protein concentration 0.225 µM) [%] | percentage of EdU-negative (hTERT-HMEC; [1]) [%] | percentage of EdU-negative (hTERT-HMEC; protein concentration 0.225 µM) [%] | other results |
| --- | --- | --- | --- | --- | --- |
| MAAAVVLAAGLRAARRAVAATGVRGGQVRGAAGVTDGNEVAKAQQATPGGAAPTIFSRILDKSLPADILYEDQQCLVFRDVAPQAPVHFLVIPKKPIPRISQAEEEDQQLLGHLLLVAKQTAKAEGLGDGYRLVINDGKLGAQSVYHLHIHVLGGRQLQWPPG [Q9BX68] | 24.7 ± 1.1 | 26.8 ± 0.95 | 4.56 ± 0.51 | 5.01 ± 0.41 | – |
| MAAAWTVVLVTLVLGLAVAGPVPTSKPTTTGKGCHIGRFKSLSPQELASFKKARDALEESLKLKNWSCSSPVFPGNWDLRLLQVRERPVALEAELALTLKVLEAAAGPALEDVLDQPLHTLHHILSQLQACIQPQPTAGPRPRGRLHHWLHRLQEAPKKESAGCLEASVTFNLFRLLTRDLKYVADGNLCLRTSTHPEST [Q8IU54] | – | – | – | – | percentage of EdU-negative (MCF7; [2]): 25.7 ± 0.7%; percentage of EdU-negative (MCF7; [3]): 26.7 ± 1.7%; percentage of EdU-negative (hTERT-HMEC; [2]): 7.03 ± 0.88%; percentage of EdU-negative (hTERT-HMEC; [3]): 20.5 ± 5.7% |
| MAAEPLTELEESIETVVTTFFTFARQEGRKDSLSVNEFKELVTQQLPHLLKDVGSLDEKMKSLDVNQDSELKFNEYWRLIGELAKEIRKKKDLKIRKK | 27.3 ± 1.9 | 25.4 ± 0.45 | 4.78 ± 0.24 | 5.02 ± 0.53 | – |
| MAAERGARRLLSTPSFWLYCLLLLGRRAPGAAAARSGSAPQSPGASIRTFTPFYFLVEPVDTLSVRGSSVILNCSAYSEPSPKIEWKKDGTFLNLVSDDRRQLLPDGSLFISNVVHSKHNKPDEGYYQCVATVESLGTIISRTAKLIVAGLPRFTSQPEPSSVYAGNNAILNCEVNADLVPFVRWEQNRQPLLLDDRVIKLPSGMLVISNATEGDGGLYRCVVESGGPPKYSDEVELKVLPDPEVISDLVFLKQPSPLVRVIGQDVVLPCVASGLPTPTIKWMKNEEALDTESSERLVLLAGGSLEISDVTEDDAGTYFCIADNGNETIEAQAELTVQAQPEFLKQPTNIYAHESMDIVFECEVTGKPTPTVKWVKNGDMVIPSDYFKIVKEHNLQVLGLVKSDEGFYQCIAENDVGNAQAGAQLIILEHAPATTGPLPSAPRDVVASLVSTRFIKLTWRTPASDPHGDNLTYSVFYTKEGIARERVENTSHPGEMQVTIQNLMPATVYIFRVMAQNKHGSGESSAPLRVETQPEVQLPGPAPNLRAYAASPTSITVTWETPVSGNGEIQNYKLYYMEKGTDKEQDVDVSSHSYTINGLKKYTEYSFRVVAYNKHGPGVSTPDVAVRTLSDVPSAAPQNLSLEVRNSKSIMIHWQPPAPATQNGQITGYKIRYRKASRKSDVTETLVSGTQLSQLIEGLDRGTEYNFRVAALTINGTGPATDWLSAETFESDLDETRVPEVPSSLHVRPLVTSIVVSWTPPENQNIVVRGYAIGYGIGSPHAQTIKVDYKQRYYTIENLDPSSHYVITLKAFNNVGEGIPLYESAVTRPHTDTSEVDLFVINAPYTPVPDPTPMMPPVGVQASILSHDTIRITWADNSLPKHQKITDSRYYTVRWKTNIPANTKYKNANATTLSYLVTGLKPNTLYEFSVMVTKGRRSSTWSMTAHGTTFELVPTSPPKDVTVVSKEGKPKTIIVNWQPPSEANGKITGYIIYYSTDVNAEIHDWVIEPVVGNRLTHQIQELTLDTPYYFKIQARNSKGMGPMSEAVQFRTPKADSSDKMPNDQASGSGGKGSRLPDLGSDYKPPMSGSNSPHGSPTSPLDSNMLLVIIVSVGVITIVVVVIIAVFCTRRTTSHQKKKRAACKSVNGSHKYKGNSKDVKPPDLWIHHERLELKPIDKSPDPNPIMTDTPIPRNSQDITPVDNSMDSNIHQRRNSYRGHESEDSMSTLAGRRGMRPKMMMPFDSQPPQPVISAHPIHSLDNPHHHFHSSSLASPARSHLYHPGSPWPIGTSMSLSDRANSTESVRNTPSTDTMPASSSQTCCTDHQDPEGATSSSYLASSQEEDSGQSLPTAHVRPSHPLKSFAVPAIPPPGPPTYDPALPSTPLLSQQALNHHIHSVKTASIGTLGRSRPPMPVVVPSAPEVQETTRMLEDSESSYEPDELTKEMAHLEGLMKDLNAITTA | – | – | – | – | percentage of EdU-negative (MCF7; [4]): 24 ± 1.2%; percentage of EdU-negative (MCF7; [5]): 26.44 ± 0.25%; percentage of EdU-negative (hTERT-HMEC; [4]): 6.13 ± 1.3%; percentage of EdU-negative (hTERT-HMEC; [5]): 12.3 ± 1.7% |
| MAAFPHKIIFFLVCSTLTHVAFSGIFNKRDFTRWPKPRCKMYIPLDPDYNADCPNVTAPVCASNGHTFQNECFFCVEQREFHYRIKFEKYGKCD [Q1W4C9] | 26.8 ± 1.7 | 27.7 ± 0.31 | 5.06 ± 0.42 | 7.07 ± 0.77 | – |
| MAAHLLPICALFLTLLDMAQGFRGPLLPNRPFTTVWNANTQWCLERHGVDVDVSVFDVVANPGQTFRGPDMTIFYSSQLGTYPYYTPTGEPVFGGLPQNASLIAHLARTFQDILAAIPAPDFSGLAVIDWEAWRPRWAFNWDTKDIYRQRSRALVQAQHPDWPAPQVEAVAQDQFQGAARAWMAGTLQLGRALRPRGLWGFYGFPDCYNYDFLSPNYTGQCPSGIRAQNDQLGWLWGQSRALYPSIYMPAVLEGTGKSQMYVQHRVAEAFRVAVAAGDPNLPVLPYVQIFYDTTNHFLPLDELEHSLGESAAQGAAGVVLWVSWENTRTKESCQAIKEYMDTTLGPFILNVTSGALLCSQALCSGHGRCVRRTSHPKALLLLNPASFSIQLTPGGGPLSLRGALSLEDQAQMAVEFKCRCYPGWQAPWCERKSMW | 26.3 ± 0.86 | 26 ± 1.1 | 5.35 ± 0.22 | 5.55 ± 0.18 | – |
| MAALLLGAVLLVAQPQLVPSRPAELGQQELLRKAGTLQDDVRDGVAPNGSAQQLPQTIIIGVRKGGTRALLEMLSLHPDVAAAENEVHFFDWEEHYSHGLGWYLSQMPFSWPHQLTVEKTPAYFTSPKVPERVYSMNPSIRLLLILRDPSERVLSDYTQVFYNHMQKHKPYPSIEEFLVRDGRLNVDYKALNRSLYHVHMQNWLRFFPLRHIHIVDGDRLIRDPFPEIQKVERFLKLSPQINASNFYFNKTKGFYCLRDSGRDRCLHESKGRAHPQVDPKLLNKLHEYFHEPNKKFFELVGRTFDWH | – | – | – | – | percentage of EdU-negative (MCF7; [6]): 21.85 ± 0.18%; percentage of EdU-negative (MCF7; protein concentration 0.185 µM): 26.7 ± 1.6%; percentage of EdU-negative (hTERT-HMEC; [6]): 4.41 ± 0.35%; percentage of EdU-negative (hTERT-HMEC; protein concentration 0.185 µM): 11.85 ± 0.08% |
| MAALSRALGPLRTPAPPLWIGLFLVATGSQQSLAQPLPGNTTEATPRSLRASGSLCGPHAKAPYLCEATHEPAAARIRAQVPDTRWSRVGGQRFYSRVLSPLHRGPSGHTEASAQRSHMGKLKEPQPQDHKPGLGAS [Q6UXU0] | 27.9 ± 0.64 | 23.7 ± 2.8 | 5.38 ± 0.31 | 5.92 ± 0.84 | – |
